Measurements as given in PMC12377726 (Proceedings of the National Academy of Sciences of the …, 2025).
Residue numbers refer to the chain shown, from its start.

B1: G001_gp1_V08_VRC01c_2021-0072 (antibody, V domains shown)
VH: QVQLVQSGAEVKKPGASVKISCKASGYTFSGYYMHWVRQAPGQGLEWMGWINPNSGGTNYAQKFQDWVTMTRDTSISTVYMELSRLRSDDTAVYYCAREWCSGGTCYSGPTFDFWGQGTLVTVSS
VL: EIVLTQSPGTLSLSPGERATLSCRASQSVSSNYLAWYQQKSGQAPRLLIYGASSRATGIPDRFSGSGSGTDFTLTISRLEPEDFAVYYCQHYETFGQGTKVEIK
B2: G001_gp1_V08_VRC01c_2021-0073 (antibody, V domains shown)
VH: QVQLVQSGAEVKKPGASVKVSCKASGYTFTGYYMHWVRQAPGQGLEWMGWINPNSGGTNYAQKFQDWVTMTRDTSISTAYMELRRLRSDDTAVYYCARGMSAKWFDSWGQGTLVTVSS
VL: B1 VL with V29F, S31N, N32S, L34V, S41P, A44G, H91Q, T99I, V101L, K104T
B3: G001_gp1_V08_VRC01c_2021-0074 (antibody, V domains shown)
VH: QVQLVQSGAEVKKPGASVKVSCKASGYTFTDYYMHWVRQAPGQGLEWMGWINPNSGGTNYAQKFQGWVTMTRDTSVSTAYMELRRLRSDDTAVYYCASGRGSSGWALDYWGQGTLVTVSS
VL: DIQMTQSPSSLSASVGDRVTITCQASQDISNYLNWYQQKPGKAPKLLIYDASILETGVPSRFSGSGSGTEFTFTISSLQPEDIATYYCQQYEAFGQGTKLEIK
B4: G001_gp1_V08_VRC01c_2021-0075 (antibody, V domains shown)
VH: QVQLVQSGAEVKKPGASVKVSCKASGYTFTDYYIHWVRQAPGQGLEWMGWINPNSGGPNYAQKFQDWVTMTRDTSISTAHMELSSLRSDDTAVYYCARGVAHTGFEFGYWGQGTLVTVSS
VL: DIQMTQSPSTLSASVGDRVTITCRASQSISSWLAWYQQKPGKAPKLLIYKASTLESGVPSRFSGSGSGTEFTLTINSLQPDDFATYYCQQYETFGQGTKVEIK
B5: G001_gp1_V08_VRC01c_2021-0076 (antibody, V domains shown)
VH: QVQLVQSGAEVKKPGASVKVSCKASGYTFTDYYIHWVRQAPGQGLEWMGWINPNSGGTNYARKFQGRVTMTRATSISTVYMELSRLRSDDTAVYYCARGYCTVGWCFDLWGRDTLVTVSS
VL: B4 VL with S30G, S31N, K42R, K50Q, T53S, L54S, N76S
B6: G001_gp1_V08_VRC01c_2021-0077 (antibody, V domains shown)
VH: QVQLVQSGAEVKKPGASVKVSCKASGYTFTDYYMHWVRQASGQGLEWMGWINPNSGGTNYAQEFQGRVTMTRDTSISTAYMELSRLRYDDTAVYYCASGGYSRTWSFNIWGLGTMVTVSS
VL: B3 VL with N31T, S52T, I53N, E70D, A93T, K99R
B7: G001_gp1_V08_VRC01c_2021-0078 (antibody, V domains shown)
VH: QVQLVQSGAEVKKPGASVKVSCKASGYTFTGYYMHWVRQAPGQGLEWMGWINPNSGGTNFAQKFQGRVTMTRGTSITTTYMELSRLRSDDTAVYYCARVSQYRTGWYFGYWGQGTLVTVSS
VL: B3 VL with I53N, E70D, A93F, Q96G, L100V
B8: G001_gp1_V08_VRC01c_2021-0081 (antibody, V domains shown)
VH: QVQLVQSGAEVKKPGASVKVSCKASGYTFTDHYMHWVRQAPGQGLEWMGWINPNSGGTNYAQKFQGWVTMTRDTSVSTAYMEVRRLRSDDTAVYYCAIIHYRRSSWEFAYWGQGTLVTVSS
VL: B3 VL with I21V, Y32S, D50G, I53N, E70D, A84G, A93T, K103R
B9: G001_gp1_V08_VRC01c_2021-0082 (antibody, V domains shown)
VH: QVQLVQSGTEVKKPGASVKVSCKASGYTFTGYYIHWVRQAPGQGLEWMGWINPNSGGTNYAQKFQGWVTMTRDTSISTAYMELRRLTSVDTAVYYCARARSGYSSGWYWAYWGQGTLVTVSS
VL: B3 VL with I53N, E70D, A93F, Q96G, L100V
B10: G001_gp1_V10_VRC01c_159 (antibody, V domains shown)
VH: QVQLVQSGAEVKKPGASVKVSCKASGYTFADYYIHWVRQAPGQGLEWMGWINPNSGGTNYAQKFQGRVTMTRDTSITTAYMELSRLGSDDTAVYYCARAYYGDYGDYWGQGTLVTVSS
VL: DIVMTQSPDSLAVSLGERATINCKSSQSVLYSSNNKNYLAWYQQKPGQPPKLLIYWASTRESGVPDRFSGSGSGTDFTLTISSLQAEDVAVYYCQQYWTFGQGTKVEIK
B11: G001_gp1_V10_VRC01c_160 (antibody, V domains shown)
VH: QVQLVQSGAEVKKPGASMKVSCEASGYTFTDYYMHWVRQAPGQGLEWMGWINPNSGGTNYAQKFQGRVTMTRDTSISTAYMELSRLRSDDTAVYYCATSIRDYLSGKVWYLGLWGRGTLVTVSS
VL: B3 VL with I53N, E70D, S76T, A93T, L100V
B12: G001_gp1_V10_VRC01c_161 (antibody, V domains shown)
VH: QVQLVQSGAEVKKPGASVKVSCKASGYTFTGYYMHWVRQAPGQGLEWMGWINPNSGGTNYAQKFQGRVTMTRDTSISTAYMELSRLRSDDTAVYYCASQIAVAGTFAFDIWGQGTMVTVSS
VL: B4 VL with T53S, N76S, E92Y, V100L
B13: G001_gp1_V10_VRC01c_162 (antibody, V domains shown)
VH: QVQLVQSGAEVKNPGASVKVSCKASGYTFSGYYMHWVRQAPGQGLEWMGWINPNSGGTNYAQKFQGRVTMTRDTSISTAYMALSRLRSDDTAVYYCARPAPYDSSGYNWGYWGQGTLVTVSS
VL: B4 VL with I29M, S30N, S31N, N76S, I102V
B14: G001_gp1_V10_VRC01c_163 (antibody, V domains shown)
VH: not shown
VL: DIVMTQSPDSLAVSLGERATINCKSSQSVYYSSNKKNYLAWYQQKPGQPPKLLIYWTSTRESGVPDRFSGSGSGTDFTLTISSLQAEDVAVYYCQQYWTFGQGTKVEIK
B15: G001_gp1_V10_VRC01c_164 (antibody, V domains shown)
VH: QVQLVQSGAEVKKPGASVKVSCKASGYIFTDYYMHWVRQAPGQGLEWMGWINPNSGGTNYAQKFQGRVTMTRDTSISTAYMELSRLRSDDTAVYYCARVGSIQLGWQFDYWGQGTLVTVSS
VL: EIVMTQSPATLSVSPGERATLSCRASQSVSSNLAWYQQIPGQAPRLLIYGTSTRATGIPARFSGSGSGTEFTLTISSLQSEDFAVYYCQQYETFGQGTKLEIK
B16: G001_gp1_V10_VRC01c_166 (antibody, V domains shown)
VH: not shown
VL: B3 VL with I53N, E70D, E92N, A93T
B17: G001_gp1_V10_VRC01c_167 (antibody, V domains shown)
VH: QVQLVQSGAEVKKPGASVKVSCKASGYTFTGYYMHWVRQAPGQGLEWMGWINPNSGGTNYAQKFQGRVTMTRDTSITTAYMELTRLISDDTAVYYCASPASIPAAGSFAFDIWGQGTMVTVSS
VL: B1 VL with S30G, N32S, A35T, S41P, R78G, H91Q
B18: G001_gp1_V10_VRC01c_168 (antibody, V domains shown)
VH: QVQLVQSGAEVKKPGASVKVSCKASGYTFTGYHIHWVRQAPGQGLEWMGWINPNSGGTNYARKFQGRVTMTRDTSISTAYMELSRLNSDDTAVYYCAFPLGIRTTGRSWYFDLWGRGTLVTVSS
VL: B3 VL with L46I, I53N, S63R, E70D, A93T, Q96G, L100V
B19: G001_gp1_V10_VRC01c_169 (antibody, V domains shown)
VH: QVHLVQSGAEVKKPGASVKVSCKASGYTFTDDYIHWLRQAPGQGLEWMGWINPYSGGTNYAQKFQGRVTMTRDTSINTAYMELSRLRSDDTAVYYCARYQSTFYFDYWGQGTLVTVSS
VL: B4 VL with I2F, I29L, T53S, N76S, F83S, Y86F, V100L

target: eOD-GT8 (engineered outer domain germline-targeting version 8), monomer (HIV-1 gp120 engineered outer domain, …)

Binder | binding result
B1 | binds
B2 | binds
B3 | binds
B4 | binds
B5 | binds
B6 | binds
B7 | binds
B8 | binds
B9 | binds
B10 | binds
B11 | binds
B12 | binds
B13 | binds
B14 | binds
B15 | binds
B16 | binds
B17 | binds
B18 | binds
B19 | binds
